From paper PMC8709174

Target: Aplysia californica acetylcholine binding protein (Ac-AChBP) (Aplysia californica)
Assay: crystal structure

α-conotoxin RgIA (peptide)
stoichiometry N (RgIA per Ac-AChBP pentamer): 5
